In publication PMC1849897 (Nucleic Acids Research, 2007):

Biological target: the molecule itself
Assay: SEC

B1: Py-DmBLM (Drosophila Bloom's syndrome helicase homolog with an N-terminal polyoma epitope tag) (enzyme)
chain: not shown
stoichiometry N: ~7
